Reference: PMC9482650, “Quantitative fragmentomics allow affinity mapping of interactomes” (Nature Communications, 2022)

Experiments:
Experiment in all cases: holdup assay
Parameters in all cases: key: below the threshold = too weak to quantify, mostly under pKd 3.1 to 4
[1] = molecular target: T1, PDZRN3_1, Q9UPQ7
T1 sequence (Q9UPQ7 244-349, limits assumed, looked up): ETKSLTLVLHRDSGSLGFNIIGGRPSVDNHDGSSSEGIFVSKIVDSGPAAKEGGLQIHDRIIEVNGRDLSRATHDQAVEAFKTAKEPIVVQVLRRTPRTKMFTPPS

[2] = molecular target: T2, MPP2, Q14168
T2 sequence (Q14168 180-250, limits assumed, looked up): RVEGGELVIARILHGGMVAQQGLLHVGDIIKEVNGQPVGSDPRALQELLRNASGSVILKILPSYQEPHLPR

[3] = molecular target: T3, NHERF3_1, Q5T2W1
T3 sequence (Q5T2W1 4-100, limits assumed, looked up): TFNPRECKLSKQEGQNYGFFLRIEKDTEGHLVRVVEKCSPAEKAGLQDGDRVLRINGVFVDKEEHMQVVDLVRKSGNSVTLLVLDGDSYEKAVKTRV

[4] = molecular target: GRIP2_5, Q9C0E4
Sequence of GRIP2_5, Q9C0E4 (Q9C0E4 544-642): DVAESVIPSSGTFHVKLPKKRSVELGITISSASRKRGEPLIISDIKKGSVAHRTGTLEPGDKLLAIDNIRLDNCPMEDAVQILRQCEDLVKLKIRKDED

[5] = molecular target: DLG2_3, Q15700
[6] = molecular target: T4, HTRA4, P83105
T4 sequence (P83105 378-476, limits assumed, looked up): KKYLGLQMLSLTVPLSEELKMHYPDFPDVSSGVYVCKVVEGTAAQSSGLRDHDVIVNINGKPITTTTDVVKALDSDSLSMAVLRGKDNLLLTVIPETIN

[7] = molecular target: FRMPD2_1, Q68DX3
Sequence of FRMPD2_1, Q68DX3 (Q68DX3 770-861): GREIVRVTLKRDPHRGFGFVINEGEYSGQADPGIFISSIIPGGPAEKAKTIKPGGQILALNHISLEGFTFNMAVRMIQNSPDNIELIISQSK

[8] = molecular target: T5, DLG3_1, Q92796
T5 sequence (Q92796 125-227, limits assumed, looked up): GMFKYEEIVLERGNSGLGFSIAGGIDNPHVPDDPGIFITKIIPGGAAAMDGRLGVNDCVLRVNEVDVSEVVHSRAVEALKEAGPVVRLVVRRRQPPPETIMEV

[9] = molecular target: Inadl_1, Q8NI35
Sequence of Inadl_1, Q8NI35 (Q8NI35 113-229): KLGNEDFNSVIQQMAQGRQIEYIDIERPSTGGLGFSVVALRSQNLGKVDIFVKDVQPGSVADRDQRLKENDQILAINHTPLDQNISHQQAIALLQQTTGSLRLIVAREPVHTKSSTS

[10] = molecular target: GRIP2_6, Q9C0E4
Sequence of GRIP2_6, Q9C0E4 (Q9C0E4 648-740): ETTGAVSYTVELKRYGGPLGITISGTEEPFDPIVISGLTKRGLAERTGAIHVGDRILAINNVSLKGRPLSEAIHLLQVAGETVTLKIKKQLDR

[11] = molecular target: T6, MPP6, Q9NZW5
T6 sequence (Q9NZW5 125-219, limits assumed, looked up): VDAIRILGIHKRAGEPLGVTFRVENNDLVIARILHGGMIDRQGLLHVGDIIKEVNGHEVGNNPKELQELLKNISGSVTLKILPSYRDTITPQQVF

[12] = molecular target: T7, LIN7B, Q9HAP6
T7 sequence (Q9HAP6 88-185, limits assumed, looked up): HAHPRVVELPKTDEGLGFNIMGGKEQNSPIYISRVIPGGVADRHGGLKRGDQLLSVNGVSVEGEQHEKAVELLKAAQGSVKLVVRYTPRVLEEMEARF

[13] = molecular target: DLG2_2, Q15700
[14] = molecular target: SCRIB_2, Q14160
Sequence of SCRIB_2, Q14160 (Q14160 857-960): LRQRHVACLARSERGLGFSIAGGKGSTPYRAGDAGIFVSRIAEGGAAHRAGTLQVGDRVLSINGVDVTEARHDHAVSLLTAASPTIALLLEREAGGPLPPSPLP

[15] = molecular target: ARHGEF12, Q9NZN5-2
Sequence of ARHGEF12, Q9NZN5-2 (Q9NZN5 other isoform, or with tags, fused parts or gaps): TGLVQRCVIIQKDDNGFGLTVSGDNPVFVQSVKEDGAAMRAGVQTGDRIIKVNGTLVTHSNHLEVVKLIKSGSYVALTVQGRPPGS

[16] = molecular target: T8, SNTB1, Q13884
T8 sequence (Q13884 107-205, limits assumed, looked up): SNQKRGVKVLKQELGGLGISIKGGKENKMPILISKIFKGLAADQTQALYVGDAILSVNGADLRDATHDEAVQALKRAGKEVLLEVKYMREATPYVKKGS

[17] = molecular target: LDB3, O75112
Sequence of LDB3, O75112 (O75112 1-94): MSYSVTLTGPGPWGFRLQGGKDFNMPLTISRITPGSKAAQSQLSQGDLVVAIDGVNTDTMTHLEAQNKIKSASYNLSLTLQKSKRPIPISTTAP

[18] = molecular target: T9, TX1BP3, O14907
T9 sequence (O14907 10-122, limits assumed, looked up): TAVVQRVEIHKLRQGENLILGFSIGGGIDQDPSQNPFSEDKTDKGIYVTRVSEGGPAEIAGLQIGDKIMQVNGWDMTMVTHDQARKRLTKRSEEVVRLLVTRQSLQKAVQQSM

[19] = molecular target: TJP1_2, Q07157
Sequence of TJP1_2, Q07157 (Q07157 181-274): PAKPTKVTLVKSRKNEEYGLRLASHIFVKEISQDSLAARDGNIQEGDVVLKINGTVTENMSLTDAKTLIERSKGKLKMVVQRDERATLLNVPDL

[20] = molecular target: GRIP2_3, Q9C0E4
Sequence of GRIP2_3, Q9C0E4 (Q9C0E4 238-339): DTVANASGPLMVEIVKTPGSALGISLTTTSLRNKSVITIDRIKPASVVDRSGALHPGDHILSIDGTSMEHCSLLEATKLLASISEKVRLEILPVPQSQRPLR

[21] = molecular target: T10, LRRC7, Q96NW7
T10 sequence (Q96NW7 1440-1537, limits assumed, looked up): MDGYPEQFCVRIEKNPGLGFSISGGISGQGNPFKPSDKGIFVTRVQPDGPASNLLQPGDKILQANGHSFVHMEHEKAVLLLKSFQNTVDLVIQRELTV

[22] = molecular target: GORASP2, Q9H8Y8
[23] = molecular target: T11, NHERF3_4, Q5T2W1
T11 sequence (Q5T2W1 373-468, limits assumed, looked up): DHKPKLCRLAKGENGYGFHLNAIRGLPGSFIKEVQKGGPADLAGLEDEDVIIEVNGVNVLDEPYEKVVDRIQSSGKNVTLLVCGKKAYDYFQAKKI

[24] = molecular target: PDLIM1, O00151
Sequence of PDLIM1, O00151 (O00151 1-87): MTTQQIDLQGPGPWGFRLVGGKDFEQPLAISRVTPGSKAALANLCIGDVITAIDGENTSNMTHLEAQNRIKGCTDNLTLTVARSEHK

[25] = molecular target: LNX1_3, Q8TBB1
Sequence of LNX1_3, Q8TBB1 (Q8TBB1 500-596): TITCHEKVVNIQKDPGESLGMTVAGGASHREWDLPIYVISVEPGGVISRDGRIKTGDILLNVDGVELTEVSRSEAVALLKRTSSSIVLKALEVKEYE

[26] = molecular target: MAST2, Q6P0Q8
Sequence of MAST2, Q6P0Q8 (Q6P0Q8 1099-1202): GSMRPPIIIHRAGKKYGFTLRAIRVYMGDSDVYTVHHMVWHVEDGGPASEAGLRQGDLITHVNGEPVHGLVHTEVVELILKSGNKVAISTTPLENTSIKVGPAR

[27] = plain residues with an end cap or a label only (N-terminal biotin on a linker: ttds)
[28] = plain residues with an end cap or a label only (N-terminal biotin on a linker: gsgsgs; C-terminal amide)
[29] = plain residues with an end cap or a label only (N-terminal biotin on a linker: ahx)

Measured: pKd

VDFPPKESSL [ACVR2A, P27037]
4.76: [1]; [27]
3.24: [24]; [27]
4.13: [18]; [27]
3.87: [22]; [27]
5.05: [26]; [27]
4.41: [16]; [27]
3.84: [13]; [27]
4.2: [15]; [27]
3.54: [12]; [27]
3.75: [5]; [27]
below the threshold: [2]; [27] | [4]; [27] | [6]; [27] | [8]; [27] | [9]; [27] | [10]; [27] | [11]; [27] | [17]; [27] | [19]; [27] | [20]; [27] | [21]; [27] | [23]; [27] | [25]; [27]
4.22: [3]; [27]
3.82: [7]; [27]
3.48: [14]; [27]

YGIVQETTFDLGGDIH [MLLT4_int, P55196]
below the threshold: [1]; [28] | [2]; [28] | [3]; [28] | [4]; [28] | [6]; [28] | [7]; [28] | [8]; [28] | [9]; [28] | [10]; [28] | [11]; [28] | [13]; [28] | [15]; [28] | [17]; [28] | [19]; [28] | [20]; [28] | [21]; [28] | [22]; [28] | [23]; [28] | [24]; [28] | [25]; [28]
3.53: [16]; [28]
4.01: [26]; [28]
3.58: [12]; [28]
3.65: [14]; [28]
3.77: [5]; [28]
3.83: [18]; [28]

RPLPRKVSQL [DOCK4, Q8N1I0]
3.55: [16]; [27]
4.85: [22]; [27]
4.21: [3]; [27]
4.62: [15]; [27]
4.58: [26]; [27]
4.17: [5]; [27]
below the threshold: [2]; [27] | [4]; [27] | [6]; [27] | [7]; [27] | [8]; [27] | [9]; [27] | [10]; [27] | [11]; [27] | [12]; [27] | [13]; [27] | [14]; [27] | [17]; [27] | [19]; [27] | [20]; [27] | [21]; [27] | [23]; [27] | [24]; [27] | [25]; [27]
3.64: [1]; [27]
4.41: [18]; [27]

FHPLGADSQV [SLC2A1, P11166]
3.65: [13]; [27]
3.49: [9]; [27]
3.53: [1]; [27]
below the threshold: [2]; [27] | [3]; [27] | [4]; [27] | [5]; [27] | [6]; [27] | [7]; [27] | [8]; [27] | [10]; [27] | [11]; [27] | [12]; [27] | [14]; [27] | [15]; [27] | [17]; [27] | [19]; [27] | [20]; [27] | [21]; [27] | [22]; [27] | [23]; [27] | [24]; [27] | [25]; [27]
3.64: [16]; [27]
4.25: [26]; [27]
3.77: [18]; [27]

RAVEEEESRF [PSCDBP, O60759]
4.45: [26]; [29]
4.34: [3]; [29]
below the threshold: [1]; [29] | [2]; [29] | [4]; [29] | [5]; [29] | [6]; [29] | [7]; [29] | [8]; [29] | [9]; [29] | [10]; [29] | [11]; [29] | [12]; [29] | [13]; [29] | [14]; [29] | [15]; [29] | [16]; [29] | [17]; [29] | [18]; [29] | [19]; [29] | [20]; [29] | [21]; [29] | [22]; [29] | [23]; [29] | [24]; [29] | [25]; [29]
